Target: T1, human angiotensin converting enzyme 2 (ACE2) receptor on HSC-2 oral squamous cell carcinoma cells (human, UniProt Q9BYF1 18-805)
T1 construct: whole, on cells
Assay: live cell confocal microscopy of HSC-2 cells with Alexa 595 labeled MASL (legend prints 1.4 pM) and Alexa 647 labeled ACE2 monoclonal antibody. This is colocalisation, not a direct binding assay.

B1: Maackia amurensis seed lectin (MASL) (other)
chain: SDELSFTINNFVPNEADLLFQGEASVSSTGVLQLTRVENGQPQQYSVGRALYAAPVRIWDNTTGSVASFSTSFTFVVKAPNPTITSDGLAFFLAPPDSQIPSGRVSKYLGLFNNSNSDSSNQIVAVEFDTYFGHSYDPWDPNYRHIGIDVNGIESIKTVQWDWINGGVAFATITYLAPNKTLIASLVYPSNQTSFIVAASVDLKEILPEWVRVGFSAATGYPTQVETHDVLSWSFTSTLEANCDAATEN
notes: also called Maacki amurensis seed lectin
  binding result: binds
